Experimental findings from EP4806514A2 (Lepu Biopharma Co., Ltd., dated 2025) are described below.

Common to all, as to assay: ELISA, antigen coated at 1 ug/mL
A general note: An ELISA detects its analyte on a solid surface through an enzyme-linked reagent.

Experiment [1] deals with T1, human CDH10-his protein (Acro bio, Cat. No. CA0-H52H5) (human, UniProt Q9Y6N8 55-613).
T1 construct: Bought; also called human CDH10 protein
T1 sequence (looked up): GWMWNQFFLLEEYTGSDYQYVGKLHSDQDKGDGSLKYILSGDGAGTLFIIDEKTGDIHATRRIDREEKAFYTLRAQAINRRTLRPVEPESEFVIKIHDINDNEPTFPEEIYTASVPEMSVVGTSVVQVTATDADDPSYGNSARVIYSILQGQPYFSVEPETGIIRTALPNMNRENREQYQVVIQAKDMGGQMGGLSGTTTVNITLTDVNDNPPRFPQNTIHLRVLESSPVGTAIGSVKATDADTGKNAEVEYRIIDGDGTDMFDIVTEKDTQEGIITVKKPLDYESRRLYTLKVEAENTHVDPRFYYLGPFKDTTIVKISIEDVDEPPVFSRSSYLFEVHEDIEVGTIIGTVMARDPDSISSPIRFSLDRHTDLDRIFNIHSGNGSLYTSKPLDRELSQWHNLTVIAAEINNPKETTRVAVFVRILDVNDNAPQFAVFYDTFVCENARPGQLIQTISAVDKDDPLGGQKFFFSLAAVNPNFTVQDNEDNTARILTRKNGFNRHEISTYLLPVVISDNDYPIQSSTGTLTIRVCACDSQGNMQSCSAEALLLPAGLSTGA

The target of experiment [2] is T2, human CDH6-his protein (Katcus, Cat. No. CDH-HM106) (human, UniProt P55285 54-615, limits assumed).
T2 construct: Bought; also called human CDH6 protein
T2 sequence (looked up): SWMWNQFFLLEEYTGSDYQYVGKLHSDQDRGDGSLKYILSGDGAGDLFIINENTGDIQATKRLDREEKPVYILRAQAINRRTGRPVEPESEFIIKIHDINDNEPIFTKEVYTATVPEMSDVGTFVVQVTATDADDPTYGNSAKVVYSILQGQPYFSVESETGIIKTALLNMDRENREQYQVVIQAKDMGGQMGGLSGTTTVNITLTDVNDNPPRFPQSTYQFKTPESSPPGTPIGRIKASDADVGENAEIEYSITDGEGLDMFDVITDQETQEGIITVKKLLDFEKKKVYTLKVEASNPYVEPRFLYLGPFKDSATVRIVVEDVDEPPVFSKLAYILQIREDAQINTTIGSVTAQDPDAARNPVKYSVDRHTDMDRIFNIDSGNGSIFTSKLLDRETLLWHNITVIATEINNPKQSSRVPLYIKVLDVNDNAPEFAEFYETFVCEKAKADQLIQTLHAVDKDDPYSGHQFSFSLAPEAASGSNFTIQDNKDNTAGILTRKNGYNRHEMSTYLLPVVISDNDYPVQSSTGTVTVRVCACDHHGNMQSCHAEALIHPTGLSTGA

Experiment [3] has as its target T3, mouse CDH17-his (Kactus, Cat. No. CDH-MM117) (mouse, UniProt Q9R100 23-786, limits assumed).
T3 construct: Bought; also called mouse CDH17 protein
T3 sequence (looked up): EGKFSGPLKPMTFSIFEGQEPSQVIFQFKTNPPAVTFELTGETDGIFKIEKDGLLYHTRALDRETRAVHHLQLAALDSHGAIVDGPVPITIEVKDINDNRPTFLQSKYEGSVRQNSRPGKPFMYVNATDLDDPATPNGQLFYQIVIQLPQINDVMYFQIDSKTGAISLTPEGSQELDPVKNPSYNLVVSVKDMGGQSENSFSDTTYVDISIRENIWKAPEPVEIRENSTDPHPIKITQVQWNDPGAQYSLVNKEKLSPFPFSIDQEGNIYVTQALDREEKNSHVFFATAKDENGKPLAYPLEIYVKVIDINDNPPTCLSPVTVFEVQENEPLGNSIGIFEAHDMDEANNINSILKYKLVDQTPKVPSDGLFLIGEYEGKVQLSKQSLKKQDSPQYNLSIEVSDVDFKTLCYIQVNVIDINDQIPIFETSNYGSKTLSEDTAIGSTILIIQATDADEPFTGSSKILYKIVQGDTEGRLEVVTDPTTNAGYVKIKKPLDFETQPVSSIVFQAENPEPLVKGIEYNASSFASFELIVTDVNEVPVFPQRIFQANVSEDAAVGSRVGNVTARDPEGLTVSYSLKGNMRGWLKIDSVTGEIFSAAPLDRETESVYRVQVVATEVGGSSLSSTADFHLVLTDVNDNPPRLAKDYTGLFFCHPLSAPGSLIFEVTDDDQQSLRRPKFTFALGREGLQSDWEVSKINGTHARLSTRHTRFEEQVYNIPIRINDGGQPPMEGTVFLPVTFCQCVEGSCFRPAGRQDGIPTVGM

Experiment [4] concerns the target T4, human CDH3-his protein (Kactus, Cat. No. CDH-HM103) (human, UniProt P22223 108-654, limits assumed).
T4 construct: Bought; also called human CDH3 protein

For experiment [5], the target named is T5, human CDH16 protein (hCDH16-his, Novoprotein, Cat. No. CJ16) (human, UniProt O75309 19-786).
T5 construct: Bought; also called human CDH16-his
T5 sequence (looked up): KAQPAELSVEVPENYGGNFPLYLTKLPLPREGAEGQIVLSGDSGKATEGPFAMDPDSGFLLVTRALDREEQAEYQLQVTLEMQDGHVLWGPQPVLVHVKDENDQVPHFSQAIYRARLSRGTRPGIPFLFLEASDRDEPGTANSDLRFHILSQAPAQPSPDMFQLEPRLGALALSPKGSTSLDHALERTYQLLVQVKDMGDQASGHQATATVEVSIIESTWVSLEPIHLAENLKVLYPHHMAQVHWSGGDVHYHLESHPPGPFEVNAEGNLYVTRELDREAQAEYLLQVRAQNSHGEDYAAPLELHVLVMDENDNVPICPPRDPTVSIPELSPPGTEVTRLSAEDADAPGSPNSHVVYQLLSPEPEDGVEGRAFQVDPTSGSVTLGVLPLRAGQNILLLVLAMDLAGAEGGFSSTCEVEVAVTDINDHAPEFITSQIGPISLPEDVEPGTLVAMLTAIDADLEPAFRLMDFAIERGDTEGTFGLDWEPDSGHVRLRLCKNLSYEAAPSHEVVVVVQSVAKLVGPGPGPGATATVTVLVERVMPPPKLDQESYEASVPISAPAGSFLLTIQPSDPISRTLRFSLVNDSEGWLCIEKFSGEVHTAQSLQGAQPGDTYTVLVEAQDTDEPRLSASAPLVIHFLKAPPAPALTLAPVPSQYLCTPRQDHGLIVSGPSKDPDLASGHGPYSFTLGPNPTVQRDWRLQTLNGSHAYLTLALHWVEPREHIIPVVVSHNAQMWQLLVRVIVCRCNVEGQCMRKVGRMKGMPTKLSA

T4 sequence (P22223 108-654 limits assumed): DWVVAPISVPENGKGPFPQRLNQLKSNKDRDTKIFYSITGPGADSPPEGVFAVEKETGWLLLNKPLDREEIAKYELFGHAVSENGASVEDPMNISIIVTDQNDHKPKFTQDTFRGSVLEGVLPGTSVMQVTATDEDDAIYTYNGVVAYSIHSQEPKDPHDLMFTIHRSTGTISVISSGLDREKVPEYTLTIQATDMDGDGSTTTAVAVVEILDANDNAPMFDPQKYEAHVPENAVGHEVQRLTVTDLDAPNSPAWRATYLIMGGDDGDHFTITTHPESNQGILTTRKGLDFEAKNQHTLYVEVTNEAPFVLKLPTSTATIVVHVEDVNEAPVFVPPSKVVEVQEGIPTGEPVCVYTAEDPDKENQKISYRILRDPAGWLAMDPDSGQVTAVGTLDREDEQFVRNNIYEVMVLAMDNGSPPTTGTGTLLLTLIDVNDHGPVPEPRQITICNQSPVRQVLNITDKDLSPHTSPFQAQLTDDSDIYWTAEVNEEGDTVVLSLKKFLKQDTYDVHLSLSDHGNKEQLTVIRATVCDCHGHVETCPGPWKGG

B1: 29H8D3-z12 (antibody, V domains shown)
VH: QVQLVQSGAEVKKPGASVKVSCKASGYTFTDHTIHWMRQRPGQGLEWIGYIYPRDGYTKYNEKFKDRATLTADTSTSTAYMELRSLRSDDTAVYYCARFYYGYWYFDVWGQGTTVTVSS
VL: DIVMTQSPLSLPVTPGEPASISCRSSKSLLRSNGNTYLYWFLQKPGQSPQVLIYRMSNLASGVPDRFSGSGSGTDFTLKISRVEAEDVGVYYCMQHLEYPFTFGQGTKLEIK
notes: Humanized, human IgG1 constant region; also called 29H8D3-z12 mAb
With B1, the binding result in experiment [1], in experiment [2], in experiment [3], in experiment [4] and in experiment [5] was “no binding (tested: titrated from 50 nM)” each time.
